Measured values reported in patent EP4667489A1 (Kyinno Biotechnology Co., Ltd., dated 2025).
Where two headings read alike, the source gives them in different places.

T1: human LAG3 expressed on 293T-LAG3 cells (human, UniProt P18627 23-525)
T1 construct: whole, on cells; 293T cells stably expressing human LAG3 (Kyinno KC-0214); also called LAG3-expressing cells
T1 sequence (looked up): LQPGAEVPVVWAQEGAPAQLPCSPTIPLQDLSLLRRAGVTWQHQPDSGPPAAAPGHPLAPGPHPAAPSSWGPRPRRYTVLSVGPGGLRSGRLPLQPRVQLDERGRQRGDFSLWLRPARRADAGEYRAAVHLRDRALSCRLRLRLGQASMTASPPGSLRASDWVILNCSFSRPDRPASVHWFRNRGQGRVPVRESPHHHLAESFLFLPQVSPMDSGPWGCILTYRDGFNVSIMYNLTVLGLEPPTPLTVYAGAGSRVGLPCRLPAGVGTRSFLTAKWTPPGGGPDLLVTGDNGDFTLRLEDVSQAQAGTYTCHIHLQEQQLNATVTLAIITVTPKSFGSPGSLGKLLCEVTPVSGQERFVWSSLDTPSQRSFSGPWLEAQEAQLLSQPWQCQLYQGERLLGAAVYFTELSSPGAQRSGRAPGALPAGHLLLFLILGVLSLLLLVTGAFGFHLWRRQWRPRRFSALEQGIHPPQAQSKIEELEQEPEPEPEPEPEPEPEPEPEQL

T2: LAG3-His (ACRO, Cat No.: LA3-H5222) (UniProt P18627 23-450)
T2 construct: bought protein; not shown: His tag
T2 sequence (looked up): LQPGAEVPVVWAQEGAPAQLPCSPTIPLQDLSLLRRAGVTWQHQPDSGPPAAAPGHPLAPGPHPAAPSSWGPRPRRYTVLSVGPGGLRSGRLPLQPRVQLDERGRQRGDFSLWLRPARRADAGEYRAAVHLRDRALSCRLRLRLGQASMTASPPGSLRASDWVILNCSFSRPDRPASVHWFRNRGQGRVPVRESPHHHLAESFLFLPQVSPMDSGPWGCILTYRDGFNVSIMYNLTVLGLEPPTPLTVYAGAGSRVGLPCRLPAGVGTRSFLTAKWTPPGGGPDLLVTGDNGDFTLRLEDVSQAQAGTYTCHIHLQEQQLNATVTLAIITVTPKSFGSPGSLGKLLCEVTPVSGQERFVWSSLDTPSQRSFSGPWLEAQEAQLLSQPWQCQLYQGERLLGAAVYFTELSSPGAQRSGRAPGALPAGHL

T3: LAG3-hFc (fusion protein of the human LAG3 extracellular domain and human IgG1-Fc) (human, UniProt P18627 23-450)
T3 construct: extracellular domain; not shown: human IgG1-Fc, Genbank CAC20454.1
T3 sequence (looked up): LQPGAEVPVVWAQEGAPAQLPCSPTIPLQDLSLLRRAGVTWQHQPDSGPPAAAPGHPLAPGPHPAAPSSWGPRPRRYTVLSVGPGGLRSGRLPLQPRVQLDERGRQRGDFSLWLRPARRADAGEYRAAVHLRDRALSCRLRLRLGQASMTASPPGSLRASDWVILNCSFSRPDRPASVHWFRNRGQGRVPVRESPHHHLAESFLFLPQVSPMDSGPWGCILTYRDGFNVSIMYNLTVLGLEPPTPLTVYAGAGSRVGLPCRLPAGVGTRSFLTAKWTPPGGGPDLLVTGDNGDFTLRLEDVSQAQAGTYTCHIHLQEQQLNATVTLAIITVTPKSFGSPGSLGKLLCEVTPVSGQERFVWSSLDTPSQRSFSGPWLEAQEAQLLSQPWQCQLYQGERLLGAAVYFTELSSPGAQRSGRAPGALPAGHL


Legend:
[1] = molecular target: T4, human PD1 expressed on 293T-PD1 cells (human, UniProt Q15116 25-288); assay: flow cytometry on 293T-PD1 cells
T4 construct: whole, on cells; 293T cells stably expressing human PD1 (Kyinno KC-0204); also called PD1-expressing cells; Jurkat NFAT-PD1-luc cells
T4 sequence (Q15116 25-288): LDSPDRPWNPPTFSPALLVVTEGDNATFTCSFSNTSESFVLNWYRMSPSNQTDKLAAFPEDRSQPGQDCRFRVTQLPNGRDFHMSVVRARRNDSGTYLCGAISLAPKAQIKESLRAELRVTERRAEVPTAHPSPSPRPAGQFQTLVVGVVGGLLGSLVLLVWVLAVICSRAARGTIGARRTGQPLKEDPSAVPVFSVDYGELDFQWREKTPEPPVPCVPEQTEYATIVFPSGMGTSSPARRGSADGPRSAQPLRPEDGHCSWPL

[2] = molecular target: T1, human LAG3 expressed on 293T-LAG3 cells; assay: flow cytometry on 293T-LAG3 cells
[3] = molecular target: T5, PD1-His (Kyinno, Cat No.: KP-1023) (UniProt Q15116 25-167, limits assumed); assay: BLI (ForteBio Octet), PD1-His as mobile phase
T5 construct: bought protein; not shown: His tag
T5 sequence (Q15116 25-167 limits assumed): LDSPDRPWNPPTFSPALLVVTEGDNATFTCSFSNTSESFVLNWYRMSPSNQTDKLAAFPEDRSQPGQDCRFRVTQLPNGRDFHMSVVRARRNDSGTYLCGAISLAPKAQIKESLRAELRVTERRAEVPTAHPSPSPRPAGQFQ

[4] = molecular target: T2, LAG3-His (ACRO, Cat No.: LA3-H5222); assay: BLI (ForteBio Octet), LAG3-His as mobile phase
[5] = molecular target: T3, LAG3-hFc (fusion protein of the human …); assay: flow cytometry, blocking of LAG3 fusion protein binding to Daudi cells (procedure of Example 5)
[6] = molecular target: T6, PD1-hFc (fusion protein of the human PD1 extracellular domain and human IgG1-Fc) (human, UniProt Q15116 25-170); assay: flow cytometry, blocking of PD1 fusion protein binding to 293T-PDL1 cells (procedure of Example 8)
T6 construct: extracellular domain; also called human PD1-hFc; not shown: human IgG1-Fc, Genbank CAC20454.1
T6 sequence (Q15116 25-170): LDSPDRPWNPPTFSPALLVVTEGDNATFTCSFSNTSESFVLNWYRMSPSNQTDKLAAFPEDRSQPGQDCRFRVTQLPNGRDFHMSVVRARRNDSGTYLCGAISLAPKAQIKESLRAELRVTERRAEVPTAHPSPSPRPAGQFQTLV

[7] = molecular target: T4, human PD1 expressed on 293T-PD1 cells; assay: flow cytometry on 293T-PD1 cells; remark: listed apart in the source
[8] = molecular target: T1, human LAG3 expressed on 293T-LAG3 cells; assay: flow cytometry on 293T-LAG3 cells; remark: listed apart in the source
[9] = molecular target: T5, PD1-His (Kyinno, Cat No.: KP-1023); assay: BLI (ForteBio Octet), PD1-His as mobile phase; remark: listed apart in the source
[10] = molecular target: T2, LAG3-His (ACRO, Cat No.: LA3-H5222); assay: BLI (ForteBio Octet), LAG3-His as mobile phase; remark: listed apart in the source
[11] = molecular target: T3, LAG3-hFc (fusion protein of the human …); assay: flow cytometry, blocking of LAG3 fusion protein binding to Daudi cells (procedure of Example 5); remark: listed apart in the source
[12] = molecular target: T6, PD1-hFc (fusion protein of the human …); assay: flow cytometry, blocking of PD1 fusion protein binding to 293T-PDL1 cells (procedure of Example 8); remark: listed apart in the source

Binder	EC50 [1] [µg/mL]	EC50 [2] [µg/mL]	Kd [3] [nM]	koff [3] [s⁻¹]	kon [3] [M⁻¹ s⁻¹]	Kd [4] [nM]	koff [4] [s⁻¹]	kon [4] [M⁻¹ s⁻¹]	IC50 [5] [µg/mL]	IC50 [6] [µg/mL]	EC50 [7] [µg/mL]	EC50 [8] [µg/mL]	Kd [9] [nM]	koff [9] [s⁻¹]	kon [9] [M⁻¹ s⁻¹]	Kd [10] [nM]	koff [10] [s⁻¹]	kon [10] [M⁻¹ s⁻¹]	IC50 [11] [µg/mL]	IC50 [12] [µg/mL]
KA-1835 H28G27V4×H107D1210-hIgG4M (bispecific antibody, PD1×LAG3 bispecific; first heavy chain targets PD1 (hIgG4 Hole), second targets LAG3 (hIgG4 Knob); common light chain 1) heavy 1: QVQLVESGGGLVKPGGSLRLSCAASGFTFSDYGMHWIRQAPGKGLEWVAYISSGSYTIYYADTVRDRFTISRDSAKNSLYLQMNSLRAEDTAVYYCVRRGPGYFGSTALDYWGQGTTVTVSSASTKGPSVFPLAPCSRSTSESTAALGCLVKDYFPEPVTVSWNSGALTSGVHTFPAVLQSSGLYSLSSVVTVPSSSLGTKTYTCNVDHKPSNTKVDKRVESKYGPPCPPCPAPEFLGGPSVFLFPPKPKDTLMISRTPEVTCVVVDVSQEDPEVQFNWYVDGVEVHNAKTKPREEQFNSTYRVVSVLTVLHQDWLNGKEYKCKVSNKGLPSSIEKTISKAKGQPREPQVCTLPPSQEEMTKNQVSLSCAVKGFYPSDIAVEWESNGQPENNYKTTPPVLDSDGSFFLVSRLTVDKSRWQEGNVFSCSVMHEALHNHYTQKSLSLSLG heavy 2: QVQLQESGPGLVKPSETLSLTCTVSGYSFTSGYYWNWIRQPPGKGLEWIGYVSYFGTANYNPALKNRVTISRDTSKNQFSLKLSSVTAADTAVYYCARGEEWDWSFDVWGQGTTVTVSSASTKGPSVFPLAPCSRSTSESTAALGCLVKDYFPEPVTVSWNSGALTSGVHTFPAVLQSSGLYSLSSVVTVPSSSLGTKTYTCNVDHKPSNTKVDKRVESKYGPPCPPCPAPEFLGGPSVFLFPPKPKDTLMISRTPEVTCVVVDVSQEDPEVQFNWYVDGVEVHNAKTKPREEQFNSTYRVVSVLTVLHQDWLNGKEYKCKVSNKGLPSSIEKTISKAKGQPREPQVYTLPPCQEEMTKNQVSLWCLVKGFYPSDIAVEWESNGQPENNYKTTPPVLDSDGSFFLYSRLTVDKSRWQEGNVFSCSVMHEALHNHYTQKSLSLSLG light: DIQITQSPSSLSASVGDRVTITCSATSGVSYMHWYQQKPGKAPKRLIYDTSRLASGVPSRFSGSGSGTDYTLTISSLQPEDFATYYCQQWSSNPPYTFGQGTRLEIKRTVAAPSVFIFPPSDEQLKSGTASVVCLLNNFYPREAKVQWKVDNALQSGNSQESVTEQDSKDSTYSLSSTLTLSKADYEKHKVYACEVTHQGLSSPVTKSFNRGEC	0.651	0.228	4.73	0.00105	222000	0.168	0.000195	1.16e+06	0.879	0.435	–	–	–	–	–	–	–	–	–	–
KA-1836 H107D1210×H28G27V4-hIgG4M (bispecific antibody, PD1×LAG3 bispecific; first heavy chain targets PD1 (hIgG4 Knob), second targets LAG3 (hIgG4 Hole); common light chain 1) heavy 1: QVQLVESGGGLVKPGGSLRLSCAASGFTFSDYGMHWIRQAPGKGLEWVAYISSGSYTIYYADTVRDRFTISRDSAKNSLYLQMNSLRAEDTAVYYCVRRGPGYFGSTALDYWGQGTTVTVSSASTKGPSVFPLAPCSRSTSESTAALGCLVKDYFPEPVTVSWNSGALTSGVHTFPAVLQSSGLYSLSSVVTVPSSSLGTKTYTCNVDHKPSNTKVDKRVESKYGPPCPPCPAPEFLGGPSVFLFPPKPKDTLMISRTPEVTCVVVDVSQEDPEVQFNWYVDGVEVHNAKTKPREEQFNSTYRVVSVLTVLHQDWLNGKEYKCKVSNKGLPSSIEKTISKAKGQPREPQVYTLPPCQEEMTKNQVSLWCLVKGFYPSDIAVEWESNGQPENNYKTTPPVLDSDGSFFLYSRLTVDKSRWQEGNVFSCSVMHEALHNHYTQKSLSLSLG heavy 2: QVQLQESGPGLVKPSETLSLTCTVSGYSFTSGYYWNWIRQPPGKGLEWIGYVSYFGTANYNPALKNRVTISRDTSKNQFSLKLSSVTAADTAVYYCARGEEWDWSFDVWGQGTTVTVSSASTKGPSVFPLAPCSRSTSESTAALGCLVKDYFPEPVTVSWNSGALTSGVHTFPAVLQSSGLYSLSSVVTVPSSSLGTKTYTCNVDHKPSNTKVDKRVESKYGPPCPPCPAPEFLGGPSVFLFPPKPKDTLMISRTPEVTCVVVDVSQEDPEVQFNWYVDGVEVHNAKTKPREEQFNSTYRVVSVLTVLHQDWLNGKEYKCKVSNKGLPSSIEKTISKAKGQPREPQVCTLPPSQEEMTKNQVSLSCAVKGFYPSDIAVEWESNGQPENNYKTTPPVLDSDGSFFLVSRLTVDKSRWQEGNVFSCSVMHEALHNHYTQKSLSLSLG light: DIQITQSPSSLSASVGDRVTITCSATSGVSYMHWYQQKPGKAPKRLIYDTSRLASGVPSRFSGSGSGTDYTLTISSLQPEDFATYYCQQWSSNPPYTFGQGTRLEIKRTVAAPSVFIFPPSDEQLKSGTASVVCLLNNFYPREAKVQWKVDNALQSGNSQESVTEQDSKDSTYSLSSTLTLSKADYEKHKVYACEVTHQGLSSPVTKSFNRGEC	0.33	0.557	6.55	0.00116	178000	0.18	0.000266	1.48e+06	0.972	0.302	–	–	–	–	–	–	–	–	–	–
KA-1793 H28G27V4×H107D1210-hIgG4M (bispecific antibody, PD1×LAG3 bispecific; first heavy chain targets PD1 (hIgG4 Hole), second targets LAG3 (hIgG4 Knob); common light chain 2) heavy 1: QVQLVESGGGLVKPGGSLRLSCAASGFTFSDYGMHWIRQAPGKGLEWVAYISSGSYTIYYADTVRDRFTISRDSAKNSLYLQMNSLRAEDTAVYYCVRRGPGYFGSTALDYWGQGTTVTVSSASTKGPSVFPLAPCSRSTSESTAALGCLVKDYFPEPVTVSWNSGALTSGVHTFPAVLQSSGLYSLSSVVTVPSSSLGTKTYTCNVDHKPSNTKVDKRVESKYGPPCPPCPAPEFLGGPSVFLFPPKPKDTLMISRTPEVTCVVVDVSQEDPEVQFNWYVDGVEVHNAKTKPREEQFNSTYRVVSVLTVLHQDWLNGKEYKCKVSNKGLPSSIEKTISKAKGQPREPQVCTLPPSQEEMTKNQVSLSCAVKGFYPSDIAVEWESNGQPENNYKTTPPVLDSDGSFFLVSRLTVDKSRWQEGNVFSCSVMHEALHNHYTQKSLSLSLG heavy 2: QVQLQESGPGLVKPSETLSLTCTVSGYSFTSGYYWNWIRQPPGKGLEWIGYVSYFGTANYNPALKNRVTISRDTSKNQFSLKLSSVTAADTAVYYCARGEEWDWSFDVWGQGTTVTVSSASTKGPSVFPLAPCSRSTSESTAALGCLVKDYFPEPVTVSWNSGALTSGVHTFPAVLQSSGLYSLSSVVTVPSSSLGTKTYTCNVDHKPSNTKVDKRVESKYGPPCPPCPAPEFLGGPSVFLFPPKPKDTLMISRTPEVTCVVVDVSQEDPEVQFNWYVDGVEVHNAKTKPREEQFNSTYRVVSVLTVLHQDWLNGKEYKCKVSNKGLPSSIEKTISKAKGQPREPQVYTLPPCQEEMTKNQVSLWCLVKGFYPSDIAVEWESNGQPENNYKTTPPVLDSDGSFFLYSRLTVDKSRWQEGNVFSCSVMHEALHNHYTQKSLSLSLG light: DIQITQSPSSLSASVGDRVTITCSASSSVSYMHWYQQKPGKAPKRLIYDTSKLASGVPSRFSGSGSGTDYTLTISSLQPEDFATYYCQQWSSNPPYTFGQGTRLEIKRTVAAPSVFIFPPSDEQLKSGTASVVCLLNNFYPREAKVQWKVDNALQSGNSQESVTEQDSKDSTYSLSSTLTLSKADYEKHKVYACEVTHQGLSSPVTKSFNRGEC	–	–	–	–	–	–	–	–	–	–	0.3	0.0931	6.87	0.00255	372000	0.175	0.000111	633000	0.88	0.232
